Measurements as given in the RNAGym collection of RNA variant scans (doi:10.1021/acssynbio.7b00057).

B1: Pistol ribozyme (parent)
chain: GGGUCGUUGUUCCAUAAUCGCGUGGAUAUGGCACGCAAGUUUCUACCGGGCACCGUAAAUGUCCGACUGGAGCCGUUCGGGCGGCUAUAAACAGACCUCAGGCCCGAAGCGUGGCGGCACCUGCCGCCGGUGGUAAAAAAGAUCGGAAGAGCACACGUCU

Variants of: B1
Assay: aptazyme ON/OFF ratio, guanine; higher = stronger switching; co-transcriptional cleavage with and without guanine

Variant	aptazyme ON/OFF ratio
U7C G9C U10A U11A C12A	1.16
U7C U8G G9U U10C U11C C12G	1.07
U8A G9U U11A C13G	1.13
U7A U8A G9A U10A C12A C13A	1.11
U10C U11G C12A C13G	1.31
U7G U8C U10C C13G	1.07
U7A U8A U10G U11A C12G	1.34
U7G U8C G9A U10G U11G C12G C13A	1.13
U10A U11G C12U	1.52
U7C U8A G9A C12G C13G	1.22
U7A G9A U10A U11G C13G	1.11
G9U U11G C13U	1.7
U7C G9C U10C U11A C12U	1
U7G U8C G9U U10G U11C C12G C13G	1.04
U8C U11G C12G C13G	1.19
U7C U8G G9U U10A U11G C12A	1.11
U10C U11A C12U	1.45
U8A U10A U11C	1
U7G G9A U10C U11C C12U C13U	1.07
U7A U8A G9C U11G C12G C13A	1.31
U7C U8G U10A C12G C13A	1.13
U7A U8G G9U U11A C12U C13A	1.43
U7C U10C C12A C13A	1.37
U8A G9C U11G C12U C13G	1.27

Variant	aptazyme ON/OFF ratio
U7A U8G G9C U10C U11C C12U C13U	1.01
U7G U8A U11A C13A	1.45
U7A G9C U10G C13A	1.15
U7A G9A U10A C13G	1.09
U7C G9U U10A U11A C12A C13G	1.1
U7C U8C G9A U10C U11G C13G	1.15
U7G U8G U10C U11G C12G C13U	1.32
G9A U11G C12A C13U	1.32
U7C U8C G9U U11A C12U C13G	1.12
U7C U8A G9U U10G U11G C12U	1.25
U8G U10A U11G C12G	1.2
U8C U10C C13U	1.51
U7C U8C G9C U10C U11G C12G C13G	1.12
U7G U8G G9U U11C C12A C13G	1.15
U7A G9C U10G U11C C12A C13G	1.05
U7G U11A C13G	1.08
U7C U8C U10A C13G	1.05
U7A U8A U10A U11A C12U C13A	1.33
U8G U10G U11G C13U	1.19
U7C U8C G9C U10G U11C C13A	1.22
U7A U8C G9C U10C U11G C12A	1.13
U7A U8G G9A U10C U11G C12A C13U	1.28
U7C U10G U11G C12G C13A	1.1
U7G U8G U10A	2.24

Variant	aptazyme ON/OFF ratio
U7A U10A U11G C13A	1.31
U7C U8G U10C C12A C13U	1.67
U8G G9U U10A U11A C12U C13G	1.11
U8A G9U U10A U11G C12U C13A	1.27
U7G U8G U10C U11G C12U	1.23
U7C U8C U10G U11C C13G	1.16
U7G G9U U10A C12U	1.54
U7A G9U U10G C12G	1.13
U7G U8C G9C U11A C12U C13G	1.13
G9A U10C U11C C12G C13U	1.14
U7G U8G G9A U10A C12A	1.46
U7C U10G U11C C12U C13G	1.16
U7A U8G U11A C12A C13U	1.07
U7G U8C U11C C13U	1.32
U7A U8C G9U U11C C12G	1.27
U7C G9U U10A U11G C12G C13G	1.14
G9A U11G C12A C13G	1.31
U7G G9A U10C U11C C13U	1.02
U7A U8C U10C	2.24
U7A U8C G9U U11C C13A	1.04
U7C U8C G9U U10G U11C C12A C13G	1.07
U7C U8C U10A U11A C12A	1.19
U7G G9U U11A C12U C13A	1.25
U7A G9A U11G C12A C13A	1.1

Variant	aptazyme ON/OFF ratio
U8A G9U U10G U11A C12A C13A	1.22
U7A U8C G9U U10A U11G C12A C13G	1.2
U10A U11A C12A	1.18
U7C U8G G9C U10G C13U	1.47
U7A U8G G9C U11A C12A C13A	1.25
U8C G9A U10G U11G C12G	1.21
G9A U10G U11G C12U C13A	1.08
U7G U8A G9U U10C U11G C12U C13U	1.19
U7C U8G G9A U11A	1.18
U7G U8A G9A U10A C13G	1.1
U7G G9U U10C U11C C13U	1.09
U7A U8C G9U U11G C12G C13G	1.16
U7C U8C G9A U11C C12G	1.17
U8A U10A U11A C12G C13A	1.12
U7A U8A U11G C12G C13G	1.24
U7A U8A G9A U11C C13A	1.06
U7G U8G G9U U10A C12A C13A	1.21
U10G C12A	1.41
U7G U8G G9C U10G U11G C13G	1.17
C12U	1.91
U7A U8C G9A U11C C13G	1.08
U7A U8C U11C C13A	1.19
U7A U8G G9A U10A U11A	1.8
U8G G9U U10A U11C C13G	1.03

Variant	aptazyme ON/OFF ratio
U7C U8G G9A U10G C12G C13U	1.17
U7G G9U U10A C12A C13G	1.26
U8C U10C U11A C12U C13A	1.26
U7C G9C U10C U11C C12A	1.03
U7A U8G G9C U10A U11C C12G C13A	1.27
U8C G9A U11G C12U C13A	1.34
U7A U8C G9C U10C U11C C12A C13U	0.998
U8C G9U U10A C12A C13G	1.19
U7C U8G G9C U10G U11G C12A	1.18
U7G G9U C12A C13G	1.33
G9U U10A C12U C13G	1.1
U8A G9U U10A U11A	1.67
U8A U11C C12G C13U	1.12
U7C U8C G9C U10A U11C C12A	1.21
U7A U10C U11A C13A	1.15
U7A U8A U10A U11A C12U	1.2
U7A U8C C12G C13A	1.18
U8C U10G U11C	1.1
U7A U8G G9C U10A U11C C12G C13G	1.17
U7C U10A U11C C12A	1.12
U7C U8C G9A U10G U11C C12G C13U	1.19
U7A U8G G9C U10A U11G C12G	1.35
U8A G9C U11C C12A C13A	1.07
U7A U8A U10G U11A C12G C13A	1.2

Variant	aptazyme ON/OFF ratio
U7G U8A G9U U10A U11A C12U C13A	1.07
U7C U8G G9U U10A C12A C13A	1.15
U7G G9C U10C U11C C12U	1.06
U7G U8G G9U U10G C12U	1.13
U8A G9A U10C U11A C12G C13G	1.12
U7C U8A G9A U10A U11A C12U C13G	1.17
U8G G9U U10G U11C C12G C13U	1.02
U7C U8G G9U U10A U11C C12U	1.04
U7G U8C G9C U10C U11C C12U	1.02
U7G G9A C13A	1.24
G9A U10A U11A C12A C13G	1.25
U7A U8G G9C U10A U11A C13U	1.26
U7G U8C G9A U10G	3.04
U7A U8C G9U U11C	1.1
U7A U8A G9A U11C C13U	1.1
U7G G9A U10G C12U C13U	1.1
U7C U8C G9U U10G U11G C12A C13G	1.09
U7C G9U U11C C13A	1.05
U8A G9A U10G U11G C12G C13U	1.05
U7A U8A U10G U11A C12A C13U	1.7
U7C U8A G9C U10A U11G C13A	1.12
G9C U10G U11A C12A C13A	1.23
U7G U8A G9U U10G U11A C12G	1.09
U7A U8A G9A U10G U11C C12A C13G	1.14

Variant	aptazyme ON/OFF ratio
U7A U8C G9A U10C C13A	1.09
U7C G9C U10A	1.06
U7A U8G G9U U10G U11C C12G C13A	1.11
U7G U10G U11C C12A C13G	1.12
U7C U8G G9U C12U C13U	1.2
U8G G9U U10C U11G C12U C13G	1.09
U7C G9C U10G U11A C13A	1.17
U7G U8G G9A U11C C12G C13A	1.21
U8A U10G C12G C13U	1.34
U7C U8C U11A C12U C13U	1.37
U7G G9A U10A U11A	2.42
U8A U10A U11A C12G C13U	1.13
U7C U8A U10A U11A C12A C13G	1.17
U7C G9A U10G U11G C12G	1.23
U7G U8C G9C U10G U11G C12G C13A	1.06
U7A U8C U10A C13U	1.05
U7G U8A G9A U10C U11G C12A C13G	1.07
U7G U8C G9U U10C U11C C12U C13A	1.55
U8C G9A U10A U11G C12A	1.04
U7G U8C G9A U11C C12G C13A	1.05
U7A U8G G9A U10G U11A C12A	1.28
U7C U8A G9C C13U	1.05
G9A U11G C12U C13A	1.35
